The target of this test is T1, S. pneumoniae IgA1 protease catalytic region (IgA1P residues 665–1963), wild type (Streptococcus pneumoniae, UniProt Q59947).
T1 construct: Streptococcus pneumoniae IgA1 protease (M26 metalloprotease), catalytic region, residues 665-1963 of UniProt Q59947 / NCBI WP_000417171 (D39 and R6 strains); Thrombin cleavage site between MBP and IgA1P; also called IgA1P 665–1963; not shown: MBP, N-terminal, cleaved
The experiment in a line: cryo-EM structure; wild type IgA1P (residues 665-1963) with the mAb #2 Fab fragment; same procedure as for the IgA1 complex but in the absence of EDTA; 20 mM HEPES, pH 7.4, 150 mM NaCl. Particulars: both partners purified.

T1 sequence (Q59947 665-1963): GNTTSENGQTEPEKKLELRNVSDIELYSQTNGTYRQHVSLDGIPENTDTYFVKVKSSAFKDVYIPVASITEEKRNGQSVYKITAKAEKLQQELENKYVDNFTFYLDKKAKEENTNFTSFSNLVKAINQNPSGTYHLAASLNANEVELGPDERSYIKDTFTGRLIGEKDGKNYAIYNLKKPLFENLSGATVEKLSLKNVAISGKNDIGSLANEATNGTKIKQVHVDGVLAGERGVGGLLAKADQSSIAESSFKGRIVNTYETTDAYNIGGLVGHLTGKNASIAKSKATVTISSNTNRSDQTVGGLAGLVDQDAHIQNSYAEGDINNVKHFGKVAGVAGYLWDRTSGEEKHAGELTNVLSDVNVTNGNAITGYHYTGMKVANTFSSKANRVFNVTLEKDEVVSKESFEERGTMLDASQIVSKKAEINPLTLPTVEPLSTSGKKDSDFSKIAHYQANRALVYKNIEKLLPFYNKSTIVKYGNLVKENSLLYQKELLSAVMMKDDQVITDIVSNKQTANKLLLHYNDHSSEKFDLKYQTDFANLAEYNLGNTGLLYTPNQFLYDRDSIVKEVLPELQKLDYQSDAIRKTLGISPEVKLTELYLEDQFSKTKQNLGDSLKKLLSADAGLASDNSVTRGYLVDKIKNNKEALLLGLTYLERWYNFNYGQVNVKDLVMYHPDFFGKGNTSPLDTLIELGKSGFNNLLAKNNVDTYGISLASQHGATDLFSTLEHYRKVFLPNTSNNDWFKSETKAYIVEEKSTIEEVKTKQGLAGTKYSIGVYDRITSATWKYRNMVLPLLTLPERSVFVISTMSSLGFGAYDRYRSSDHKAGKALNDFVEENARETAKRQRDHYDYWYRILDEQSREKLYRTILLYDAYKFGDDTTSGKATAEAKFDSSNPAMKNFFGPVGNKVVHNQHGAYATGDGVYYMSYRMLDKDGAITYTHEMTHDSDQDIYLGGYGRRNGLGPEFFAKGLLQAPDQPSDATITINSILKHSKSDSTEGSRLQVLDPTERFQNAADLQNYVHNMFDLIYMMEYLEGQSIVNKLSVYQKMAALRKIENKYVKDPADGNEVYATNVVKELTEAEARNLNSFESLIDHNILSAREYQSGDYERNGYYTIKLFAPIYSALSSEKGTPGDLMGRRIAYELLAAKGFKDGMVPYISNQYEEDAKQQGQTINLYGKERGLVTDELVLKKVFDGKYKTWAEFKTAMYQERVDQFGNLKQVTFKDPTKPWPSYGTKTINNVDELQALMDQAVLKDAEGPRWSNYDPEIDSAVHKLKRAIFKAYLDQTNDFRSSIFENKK

B1: mAb #2 Fab fragment (neutralizing murine monoclonal antibody against IgA1P) (Fab, V domains shown)
VH: EVQLQQSGPELEKPGASMKISCKASGYSFTGYNMNWVKQSNGKSLEWIGSIDPYTGGSNYNQKFMGKATLTVDKSSSTAYMQLKSLTSEDSAVYYCATVVGRVYAMDYWGQGTSVTVSS
VL: EEVLTQSPAIMSASPGEKVTMTCSASSSVSYIHWYQQKSNTSPKLWIYATSKLASGVPGRFSGSGSGNSYSLTISSMEAEDVATYYCFQGSGYPFTFGSGTKLEIK
notes: PDB 3RHW named as the most similar heavy chain; PDB 4HXA named as the most similar light chain; Raised against purified full-length protease; also called neutralizing mAb Fab fragment; source: hybridoma (Balb C mouse spleen cells fused with SP2/0 myeloma cells), IgG purified on Protein G columns; Fab excised with immobilized Ficin
For the molecule B1, the binding result is “binds”.

Values taken from article PMC7695701, “Mechanism and inhibition of Streptococcus pneumoniae IgA1 protease” (Nature Communications, 2020).
